Consider 4 molecules from PMC5531557, “Crystal structure and kinetic analysis of the class B3 di-zinc metallo-β-lactamase LRA-12 from an Alaskan soil metagenome” (PLoS ONE, 2017).

In series [1] the target is T1, LRA-12 (uncultured bacterium BLR12, UniProt B5L5V5).
T1 construct: gene blaLRA-12; pET28a(+) in E. coli BL21(DE3), N-terminal His tag cut by thrombin; mature enzyme of 269 residues (Gln26-Asn306 in BBL numbering); di-zinc
In words: residual ertapenem hydrolysis, UV absorbance. Type of series: biochemical.

Series [2] deals with CC(=O)OCC1=C(C(=O)O)N2C(=O)[C@@H](NC(=O)Cc3cccs3)[C@H]2SC1. In words: purified protein. It is filed as biochemical, uncultured bacterium BLR12. Conditions: 10 mM HEPES, 20 mM NaCl, pH 7.5, room temperature.
Series [3] deals with CC(C)(O/N=C(\C(=O)N[C@@H]1C(=O)N2C(C(=O)[O-])=C(C[n+]3ccccc3)CS[C@H]12)c1csc(N)n1)C(=O)O. In words: purified protein. Conditions: 10 mM HEPES, 20 mM NaCl, pH 7.5, room temperature. It is filed as biochemical, uncultured bacterium BLR12.
For series [4], the system named is CC1(C)S[C@@H]2[C@H](NC(=O)Cc3ccccc3)C(=O)N2[C@H]1C(=O)O. As to the kind of experiment: purified protein. Conditions: 10 mM HEPES, 20 mM NaCl, pH 7.5, room temperature. It is filed as biochemical, uncultured bacterium BLR12.
Series [5] concerns CCN1CCN(C(=O)N[C@@H](C(=O)N[C@@H]2C(=O)N3[C@@H]2SC(C)(C)[C@@H]3C(=O)O)c2ccccc2)C(=O)C1=O. In words: purified protein. It is filed as biochemical, uncultured bacterium BLR12. Conditions: 10 mM HEPES, 20 mM NaCl, pH 7.5, room temperature.
In series [6] the test system is CO/N=C(\C(=O)N[C@@H]1C(=O)N2C(C(=O)O)=C(COC(C)=O)CS[C@H]12)c1csc(N)n1. As to the kind of experiment: purified protein. Conditions: 10 mM HEPES, 20 mM NaCl, pH 7.5, room temperature. Type of series: biochemical, uncultured bacterium BLR12.
For series [7], the system named is CO/N=C(\C(=O)N[C@@H]1C(=O)N2C(C(=O)O)=C(COC(N)=O)CS[C@H]12)c1ccco1. As to the kind of experiment: purified protein. Conditions: 10 mM HEPES, 20 mM NaCl, pH 7.5, room temperature. It is filed as biochemical, uncultured bacterium BLR12.
The test system of series [8] is CO/N=C(\C(=O)N[C@@H]1C(=O)N2C(C(=O)[O-])=C(C[N+]3(C)CCCC3)CS[C@H]12)c1csc(N)n1. In words: purified protein. Type of series: biochemical, uncultured bacterium BLR12. Conditions: 10 mM HEPES, 20 mM NaCl, pH 7.5, room temperature.
Series [9] has as its system CO[C@@]1(NC(=O)Cc2cccs2)C(=O)N2C(C(=O)O)=C(COC(N)=O)CS[C@@H]21. In words: purified protein. It is filed as biochemical, uncultured bacterium BLR12. Conditions: 10 mM HEPES, 20 mM NaCl, pH 7.5, room temperature.
Series [10] relates to C[C@@H](O)[C@H]1C(=O)N2C(C(=O)O)=C(SCCN=CN)C[C@H]12. As to the kind of experiment: purified protein. Conditions: 10 mM HEPES, 20 mM NaCl, pH 7.5, room temperature. It is filed as biochemical, uncultured bacterium BLR12.
Series [11] concerns C[C@@H](O)[C@H]1C(=O)N2C(C(=O)O)=C(S[C@@H]3CN[C@H](C(=O)N(C)C)C3)[C@H](C)[C@H]12. As to the kind of experiment: purified protein. Type of series: biochemical, uncultured bacterium BLR12. Conditions: 10 mM HEPES, 20 mM NaCl, pH 7.5, room temperature.
Series [12] deals with C[C@@H](O)[C@H]1C(=O)N2C(C(=O)O)=C(S[C@@H]3CN[C@H](C(=O)Nc4cccc(C(=O)O)c4)C3)[C@H](C)[C@H]12. As to the kind of experiment: purified protein. Type of series: biochemical, uncultured bacterium BLR12. Conditions: 10 mM HEPES, 20 mM NaCl, pH 7.5, room temperature.
For series [13], the target named is T1, LRA-12. As to the kind of experiment: competition with ceftazidime hydrolysis, UV absorbance. Type of series: biochemical.

T1 sequence (B5L5V5 entry or part of it): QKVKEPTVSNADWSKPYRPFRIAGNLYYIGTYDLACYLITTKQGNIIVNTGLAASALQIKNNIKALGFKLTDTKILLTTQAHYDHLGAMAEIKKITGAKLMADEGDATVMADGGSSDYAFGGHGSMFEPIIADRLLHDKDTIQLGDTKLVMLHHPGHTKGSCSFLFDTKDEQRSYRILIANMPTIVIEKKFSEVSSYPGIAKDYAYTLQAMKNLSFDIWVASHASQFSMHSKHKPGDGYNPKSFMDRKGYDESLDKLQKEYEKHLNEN

One may read the IC50 as the concentration that inhibits the measured activity by half. Low readings indicate inhibition by little substance, high ones a need for much substance. With `O=C(O)CN(CCN(CC(=O)O)CC(=O)O)CC(=O)O` [EDTA], it took 113 µM to reach half-maximal inhibition in [1] (IC50).

Broadly, the Km is the concentration of substrate that gives half-maximal velocity. As a reminder, the kcat is the maximal rate divided by the concentration of active sites. As usually defined, the kcat/Km is the turnover number divided by the Michaelis constant. Take LRA-12 (uncultured bacterium BLR12): the Km in [2] is 11 ± 2 µM; in series [3] it was 59 ± 8 µM; in series [4] it was 47 ± 4 µM; in series [5], 83 ± 9 µM; in series [6], 36 ± 4 µM; in [7], 20 ± 3.4 µM. Moreover, the Michaelis-Menten constant (Km) amounted to 93 ± 13 µM in [8]; 4 ± 0.6 µM in series [9]; 39 ± 7 µM in series [10]; 113 ± 20 µM in [11]; 43 ± 6 µM in series [12]. In addition, the kcat in series [2] is 18 ± 0.8 s⁻¹; in series [3], 12 ± 0.8 s⁻¹; in series [4], 70 ± 2 s⁻¹; in series [5] it was 74 ± 3 s⁻¹; in [6], 7 ± 0.3 s⁻¹; in [7] it was 16 ± 0.9 s⁻¹. Further, the kcat is 15 ± 1.4 s⁻¹ in [8]; 7 ± 0.4 s⁻¹ in series [9]; 66 ± 5 s⁻¹ in [10]; 95 ± 11 s⁻¹ in [11]; 57 ± 4 s⁻¹ in series [12]. For the same molecule, the kcat/Km in [2] came to 1.64e+06 ± 370000 M⁻¹ s⁻¹; in series [3] it was 200000 ± 40000 M⁻¹ s⁻¹; in series [4], 1.49e+06 ± 150000 M⁻¹ s⁻¹; in [5], 890000 ± 130000 M⁻¹ s⁻¹; in series [6], 190000 ± 30000 M⁻¹ s⁻¹; in [7], 800000 ± 190000 M⁻¹ s⁻¹. Besides, the kcat/Km in series [8] came out at 160000 ± 40000 M⁻¹ s⁻¹; in series [9], 1.75e+06 ± 320000 M⁻¹ s⁻¹; in [10], 1.69e+06 ± 420000 M⁻¹ s⁻¹; in series [11] it was 840000 ± 230000 M⁻¹ s⁻¹; in [12], 1.33e+06 ± 270000 M⁻¹ s⁻¹.

Broadly, the Ki is the equilibrium dissociation constant of an inhibitor or competing ligand from its target. A higher Ki goes with lower affinity. `C[C@H]1[C@H](NC(=O)/C(=N\OC(C)(C)C(=O)O)c2csc(N)n2)C(=O)N1S(=O)(=O)O` [aztreonam] gave a Ki in series [13] of 146 µM.

In series [1], `O=C(O)c1cccc(C(=O)O)n1` [DPA, pyridine-2,6-dicarboxylic acid] returned an IC50 of 460 µM.
